{
  "source": "paper PMC4970744",
  "binders": {"B1": {"name": "ZO-2 (natural protein)", "chain": "MPVRGDRGFPPRRELSGWLRAPGMEELIWEQYTVTLQKDSKRGFGIAVSGGRDNPHFENGETSIVISDVLPGGPADGLLQENDRVVMVNGTPMEDVLHSFAVQQLRKSGKVAAIVVKRPRKVQVAALQASPPLDQDDRAFEVMDEFDGRSFRSGYSERSRLNSHGGRSRSWEDSPERGRPHERARSRERDLSRDRSRGRSLERGLDQDHARTRDRSRGRSLERGLDHDFGPSRDRDRDRSRGRSIDQDYERAYHRAYDPDYERAYSPEYRRGARHDARSRGPRSRSREHPHSRSPSPEPRGRPGPIGVLLMKSRANEEYGLRLGSQIFVKEMTRTGLATKDGNLHEGDIILKINGTVTENMSLTDARKLIEKSRGKLQLVVLRDSQQTLINIPSLNDSDSEIEDISEIESNRSFSPEERRHQYSDYDYHSSSEKLKERPSSREDTPSRLSRMGATPTPFKSTGDIAGTVVPETNKEPRYQEDPPAPQPKAAPRTFLRPSPEDEAIYGPNTKMVRFKKGDSVGLRLAGGNDVGIFVAGIQEGTSAEQEGLQEGDQILKVNTQDFRGLVREDAVLYLLEIPKGEMVTILAQSRADVYRDILACGRGDSFFIRSHFECEKETPQSLAFTRGEVFRVVDTLYDGKLGNWLAVRIGNELEKGLIPNKSRAEQMASVQNAQRDNAGDRADFWRMRGQRSGVKKNLRKSREDLTAVVSVSTKFPAYERVLLREAGFKRPVVLFGPIADIAMEKLANELPDWFQTAKTEPKDAGSEKSTGVVRLNTVRQIIEQDKHALLDVTPKAVDLLNYTQWFPIVIFFNPDSRQGVKTMRQRLNPTSNKSSRKLFDQANKLKKTCAHLFTATINLNSANDSWFGSLKDTIQHQQGEAVWVSEGKMEGMDDDPEDRMSYLTAMGADYLSCDSRLISDFEDTDGEGGAYTDNELDEPAEEPLVSSITRSSEPVQHEESIRKPSPEPRAQMRRAASSDQLRDNSPPPAFKPEPPKAKTQNKEESYDFSKSYEYKSNPSAVAGNETPGASTKGYPPPVAAKPTFGRSILKPSTPIPPQEGEEVGESSEEQDNAPKSVLGKVKIFEKMDHKARLQRMQELQEAQNARIEIAQKHPDIYAVPIKTHKPDPGTPQHTSSRPPEPQKAPSRPYQDTRGSYGSDAEEEEYRQQLSEHSKRGYYGQSARYRDTEL"}},
  "target": "HPV-16Q150A peptide (Human papillomavirus type 16)",
  "test": "affinity purification with mass spectrometry; biotinylated peptide (500 ug) on streptavidin magnetic sepharose beads; pre-cleared HaCaT cell extract, 2 h at 4°C; lysis buffer 50 mM HEPES pH 7.4, 150 mM NaCl, 1 mM MgCl2, 1% Triton X-100; trypsin digest and mass spectroscopy; pooled from at least two pull-downs",
  "data": [
    {"binder": "B1", "values": [
      {"measurement": "reduction in binding against the HPV-16 peptide", "result": 25, "unit": "%"}
    ]}
  ]
}
